From patent US20150344570A1 (published 2015)

T1: FcγRIIb (human, UniProt P31994 43-217)
T1 construct: extracellular domain; Soluble extracellular domain with C-terminal His tag, used as analyte in Biacore; also called FcgRIIb; 2b; not shown: His tag attached to the C terminus
T1 sequence (looked up): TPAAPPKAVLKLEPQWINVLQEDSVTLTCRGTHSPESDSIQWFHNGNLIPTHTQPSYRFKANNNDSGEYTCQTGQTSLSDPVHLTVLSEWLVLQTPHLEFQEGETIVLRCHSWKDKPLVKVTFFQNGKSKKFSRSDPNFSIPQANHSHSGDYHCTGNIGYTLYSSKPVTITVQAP


Legend:
FcγRIIb = target: T1, FcγRIIb; test: SPR (Biacore), antibody captured, FcγR as analyte; relative to GpH7-A5/GpH7-B3/GpL16-k0 = 100
Description: (§1) The heterodimerized antibodies He Abs in which one of the H chains was introduced with an alteration were assayed for their binding activities to each activating FcγR and inhibitory FcγR according to the method described in Example 4. […] The activating FcγRs in FIGS. 26, 27, 28, and 29 are FcγRIa, FcγRIIa (R), FcγRIIa (H), and FcγRIIIa, respectively.
(§2) Analysis of interaction between objective antibody and the FcγR was carried out using Biacore T100 (GE Healthcare). HBS-EP+ (GE Healthcare) was used as the running buffer, and the measurement temperature was set to 25° C. Chips produced by immobilizing the antigen peptide by the amine coupling method to a Series S Sencor Chip CM5 (GE Healthcare), or alternatively, chips produced by allowing preliminarily biotinylated antigen peptides to interact with and immobilize onto a Series S Sensor Chip SA (certified) (GE Healthcare) were used. Antibodies of interest were captured onto an antigen peptide-immobilized chip, and allowed to interact to each FcγR diluted with running buffer. To regenerate and repeatedly use the chip, the antibodies captured on the chip were washed off by reacting 10 mM glycine-HCl, pH 1.5.

FcγRIa = target: T2, FcγRIa (human, UniProt P12314 16-292); test: as above
T2 construct: extracellular domain; Soluble extracellular domain with C-terminal His tag, used as analyte in Biacore; also called FcgRI; 1a; not shown: His tag attached to the C terminus
Description: as §1, §2

T2 sequence (P12314 16-292): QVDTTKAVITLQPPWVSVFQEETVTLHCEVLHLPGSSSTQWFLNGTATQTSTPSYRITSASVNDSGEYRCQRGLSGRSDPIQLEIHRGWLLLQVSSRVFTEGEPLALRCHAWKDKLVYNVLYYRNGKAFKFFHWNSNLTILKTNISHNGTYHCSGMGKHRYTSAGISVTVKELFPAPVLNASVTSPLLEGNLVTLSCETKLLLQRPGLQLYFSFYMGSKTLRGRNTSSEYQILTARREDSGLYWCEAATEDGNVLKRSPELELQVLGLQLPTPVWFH

Binder	He/Con_2b (FcγRIIb)	He/Con_1a (FcγRIa)
GpH7-A5/GpH7-B3 variant N325_13S/GpL16-k0 (antibody, human IgG1, kappa, Heterodimerized anti-glypican-3 IgG1; alteration in the GpH7-B3 chain only; also called He Ab) heavy 1: not shown heavy 2: not shown light: DIVMTQSPLSLPVTPGEPASISCQASESLVHSNRNTYLHWYLQKPGQSPQLLIYKVSNRFSGVPDRFSGSGSGTDFTLKISRVEAEDVGVYYCSQNTHVPPTFGQGTKVEIERTVAAPSVFIFPPSDEQLKSGTASVVCLLNNFYPREAKVQWKVDNALQSGNSQESVTEQDSKDSTYSLSSTLTLSKADYEKHKVYACEVTHQGLSSPVTKSFNRGEC	177 % of control (=100)	96.8 % of control (=100)
GpH7-A5/GpH7-B3 variant P238_16H/GpL16-k0 (antibody, human IgG1, kappa, Heterodimerized anti-glypican-3 IgG1; alteration in the GpH7-B3 chain only; also called He Ab) heavy 1: not shown heavy 2: not shown light: DIVMTQSPLSLPVTPGEPASISCQASESLVHSNRNTYLHWYLQKPGQSPQLLIYKVSNRFSGVPDRFSGSGSGTDFTLKISRVEAEDVGVYYCSQNTHVPPTFGQGTKVEIERTVAAPSVFIFPPSDEQLKSGTASVVCLLNNFYPREAKVQWKVDNALQSGNSQESVTEQDSKDSTYSLSSTLTLSKADYEKHKVYACEVTHQGLSSPVTKSFNRGEC	115 % of control (=100)	96 % of control (=100)
GpH7-A5/GpH7-B3 variant P331_06M/GpL16-k0 (antibody, human IgG1, kappa, Heterodimerized anti-glypican-3 IgG1; alteration in the GpH7-B3 chain only; also called He Ab) heavy 1: not shown heavy 2: not shown light: DIVMTQSPLSLPVTPGEPASISCQASESLVHSNRNTYLHWYLQKPGQSPQLLIYKVSNRFSGVPDRFSGSGSGTDFTLKISRVEAEDVGVYYCSQNTHVPPTFGQGTKVEIERTVAAPSVFIFPPSDEQLKSGTASVVCLLNNFYPREAKVQWKVDNALQSGNSQESVTEQDSKDSTYSLSSTLTLSKADYEKHKVYACEVTHQGLSSPVTKSFNRGEC	102 % of control (=100)	93.6 % of control (=100)
GpH7-A5/GpH7-B3 variant P331_04F/GpL16-k0 (antibody, human IgG1, kappa, Heterodimerized anti-glypican-3 IgG1; alteration in the GpH7-B3 chain only; also called He Ab) heavy 1: not shown heavy 2: not shown light: DIVMTQSPLSLPVTPGEPASISCQASESLVHSNRNTYLHWYLQKPGQSPQLLIYKVSNRFSGVPDRFSGSGSGTDFTLKISRVEAEDVGVYYCSQNTHVPPTFGQGTKVEIERTVAAPSVFIFPPSDEQLKSGTASVVCLLNNFYPREAKVQWKVDNALQSGNSQESVTEQDSKDSTYSLSSTLTLSKADYEKHKVYACEVTHQGLSSPVTKSFNRGEC	110 % of control (=100)	95.5 % of control (=100)
GpH7-A5/GpH7-B3 variant P331_03V/GpL16-k0 (antibody, human IgG1, kappa, Heterodimerized anti-glypican-3 IgG1; alteration in the GpH7-B3 chain only; also called He Ab) heavy 1: not shown heavy 2: not shown light: DIVMTQSPLSLPVTPGEPASISCQASESLVHSNRNTYLHWYLQKPGQSPQLLIYKVSNRFSGVPDRFSGSGSGTDFTLKISRVEAEDVGVYYCSQNTHVPPTFGQGTKVEIERTVAAPSVFIFPPSDEQLKSGTASVVCLLNNFYPREAKVQWKVDNALQSGNSQESVTEQDSKDSTYSLSSTLTLSKADYEKHKVYACEVTHQGLSSPVTKSFNRGEC	119 % of control (=100)	92 % of control (=100)

Second part, the binder after the results:

He/Con_2b (FcγRIIb)	He/Con_1a (FcγRIa)	Binder
112 % of control (=100)	99.2 % of control (=100)	GpH7-A5/GpH7-B3 variant S324_06M/GpL16-k0 (antibody, human IgG1, kappa, Heterodimerized anti-glypican-3 IgG1; alteration in the GpH7-B3 chain only; also called He Ab) heavy 1: not shown heavy 2: not shown light: DIVMTQSPLSLPVTPGEPASISCQASESLVHSNRNTYLHWYLQKPGQSPQLLIYKVSNRFSGVPDRFSGSGSGTDFTLKISRVEAEDVGVYYCSQNTHVPPTFGQGTKVEIERTVAAPSVFIFPPSDEQLKSGTASVVCLLNNFYPREAKVQWKVDNALQSGNSQESVTEQDSKDSTYSLSSTLTLSKADYEKHKVYACEVTHQGLSSPVTKSFNRGEC
107 % of control (=100)	97.8 % of control (=100)	GpH7-A5/GpH7-B3 variant S239_07I/GpL16-k0 (antibody, human IgG1, kappa, Heterodimerized anti-glypican-3 IgG1; alteration in the GpH7-B3 chain only; also called He Ab) heavy 1: not shown heavy 2: not shown light: DIVMTQSPLSLPVTPGEPASISCQASESLVHSNRNTYLHWYLQKPGQSPQLLIYKVSNRFSGVPDRFSGSGSGTDFTLKISRVEAEDVGVYYCSQNTHVPPTFGQGTKVEIERTVAAPSVFIFPPSDEQLKSGTASVVCLLNNFYPREAKVQWKVDNALQSGNSQESVTEQDSKDSTYSLSSTLTLSKADYEKHKVYACEVTHQGLSSPVTKSFNRGEC
114 % of control (=100)	93.4 % of control (=100)	GpH7-A5/GpH7-B3 variant P331_07I/GpL16-k0 (antibody, human IgG1, kappa, Heterodimerized anti-glypican-3 IgG1; alteration in the GpH7-B3 chain only; also called He Ab) heavy 1: not shown heavy 2: not shown light: DIVMTQSPLSLPVTPGEPASISCQASESLVHSNRNTYLHWYLQKPGQSPQLLIYKVSNRFSGVPDRFSGSGSGTDFTLKISRVEAEDVGVYYCSQNTHVPPTFGQGTKVEIERTVAAPSVFIFPPSDEQLKSGTASVVCLLNNFYPREAKVQWKVDNALQSGNSQESVTEQDSKDSTYSLSSTLTLSKADYEKHKVYACEVTHQGLSSPVTKSFNRGEC
102 % of control (=100)	85.3 % of control (=100)	GpH7-A5/GpH7-B3 variant S239_05P/GpL16-k0 (antibody, human IgG1, kappa, Heterodimerized anti-glypican-3 IgG1; alteration in the GpH7-B3 chain only; also called He Ab) heavy 1: not shown heavy 2: not shown light: DIVMTQSPLSLPVTPGEPASISCQASESLVHSNRNTYLHWYLQKPGQSPQLLIYKVSNRFSGVPDRFSGSGSGTDFTLKISRVEAEDVGVYYCSQNTHVPPTFGQGTKVEIERTVAAPSVFIFPPSDEQLKSGTASVVCLLNNFYPREAKVQWKVDNALQSGNSQESVTEQDSKDSTYSLSSTLTLSKADYEKHKVYACEVTHQGLSSPVTKSFNRGEC
